Results on 3 proteins are retold here after paper PMC10652100, “Bacterial RNA-free RNase P: Structural and functional characterization of multiple oligomeric forms of a minimal protein-only ribonuclease P” (The Journal of Biological Chemistry, 2023).

Series [1] deals with the molecule itself. Briefly: native MS; His-tagged Hth1307 in 200 mM ammonium acetate pH 7, nano-electrospray, Q-Exactive UHMR; 500-1000 nM protein.
Series [2] concerns the molecule itself. Briefly: SEC; analytical, Superdex 200 Increase 5/150 GL, 50 mM Tris pH 8.5, 150 mM NaCl, 1 mM TCEP; Hth1307 from 93.6 nM upwards; A280.
Series [3] deals with the molecule itself. Briefly: crystal structure; lower molecular weight fraction of Hth1307; 2 M ammonium sulfate, 0.1 M Bis-Tris pH 5.5, 4 C; space group C2221, two protomers in the asymmetric unit; tetramer by crystal symmetry.
Series [4] deals with the molecule itself. Briefly: SEC; oligomers seen when purifying Aq880 (Superdex 200 pg 16/600; 50 mM Tris pH 8.5, 150 mM NaCl, 1 mM TCEP).

B1: His-tagged Hth1307 (enzyme, Hydrogenobacter thermophilus)
chain: MDTFVLDTSVFTNPDVYHQFEEDQLGAIENFISLASHTNANFFMPTSVYYEFTKMVSLGDLAPKFELVVRIRSPRKWGLMVPAEFLYEFIEEVRYRINKGLRIAEEHTKEAGKLAEEEVGRVVNRLREKYREALRAGIIDSKEDVDVLLLSYELDAILVSGDEGLRKWADRVGIKLIDPKNLRYIMENLTKVGR
notes: HARP (RNA-free RNase P) of Hydrogenobacter thermophilus, Hth1307; gene synthesised by Integrated DNA Technologies; Same construct as m2 (pMCSG7, N-terminal His6 and TEV site) with the tag left on; also called His-tagged Hydrogenobacter thermophilus HARP; source: E. coli BL21 Rosetta DE3, purified; not shown: His6, N-terminal, kept; copies: 14
Consider B1, for which the “stoichiometry N” value in series [1] worked out at 14.

B2: Hydrogenobacter thermophilus HARP (Hth1307) (enzyme)
chain: B1 chain
notes: HARP (RNA-free RNase P) of Hydrogenobacter thermophilus, Hth1307; gene synthesised by Integrated DNA Technologies; Cloned into pMCSG7 (N-terminal His6 tag and TEV site); the tag was removed with TEV protease by the general purification protocol; also called Ht HARP; source: E. coli BL21 Rosetta DE3, purified (Ni-Sepharose, DEAE, TEV cleavage, second Ni-Sepharose, SEC); not shown: His6, …
In the case of B2, the “stoichiometry N” value in series [2] amounted to 14; in series [3] it was 4.

B3: Aquifex aeolicus HARP (Aq880) (enzyme)
chain: MDVFVLDTSVFTNPEIYRTFEEDQRGAMETFIHLALNSRAEFYMPTSVYTEMRKIMDVGELWAEFEMVVKIRSPRRFQLTVPADFLYEFIEELRYRINKGLRIAEEHTREASGCEDVGKLIARLREKYREALRQGILDSKEDVDVLLLAYELDGVLVSADEGLRTWADKIGIKLIDPKNFKNILESLVRHRF
notes: HARP (RNA-free RNase P) of Aquifex aeolicus, Aq880, 23 kDa; gene synthesised by Integrated DNA Technologies; Cloned into pMCSG7 (N-terminal His6 tag and TEV site); the tag was removed with TEV protease, and residues of the site may be left at the N-terminus (surmised); also called HARP from A. aeolicus; Homolog of Aquifex RNase P; source: E. coli BL21 Rosetta DE3, purified (Ni-Sepharose, DEAE, …)
As to B3, the “stoichiometry N” value in series [4] is 4.
